IntAct's records for PubMed 17290217

B1: Phosphatidylinositol 4-phosphate 5-kinase type-1 gamma (Mus musculus), O70161 (parent)
chain: MELEVPDEAESAEAGAVTAEAAWSAESGAAAGMTQKKAGLAEAPLVTGQPGPGHGKKLGHRGVDASGETTYKKTTSSTLKGAIQLGIGYTVGNLSSKPERDVLMQDFYVVESIFFPSEGSNLTPAHHFQDFRFKTYAPVAFRYFRELFGIRPDDYLYSLCNEPLIELSNPGASGSVFYVTSDDEFIIKTVMHKEAEFLQKLLPGYYMNLNQNPRTLLPKFYGLYCVQSGGKNIRVVVMNNVLPRVVKMHLKFDLKGSTYKRRASKKEKEKSLPTYKDLDFMQDMPEGLLLDSDTFGALVKTLQRDCLVLESFKIMDYSLLLGVHNIDQQERERQAEGAQSKADEKRPVAQKALYSTAMESIQGGAARGEAIETDDTMGGIPAVNGRGERLLLHIGIIDILQSYRFIKKLEHTWKALVHDGDTVSVHRPSFYAERFFKFMSSTVFRKSSSLKSSPSKKGRGALLAVKPLGPTAAFSASQIPSEREDVQYDLRGARSYPTLEDEGRPDLLPCTPPSFEEATTASIATTLSSTSLSIPERSPSDTSEQPRYRRRTQSSGQDGRPQEEPHAEDLQKITVQVEPVCGVGVVPKEEGAGVEVPPCGASAAASVEIDAASQASEPASQASDEEDAPSTDIYFPTDERSWVYSPLHYSARPASDGESDT

Variants of: B1
Settings: with Ap2b1, Q9DBG3-2
Ap2b1, Q9DBG3-2, sequence (Q9DBG3 other isoform, or with tags, fused parts or gaps): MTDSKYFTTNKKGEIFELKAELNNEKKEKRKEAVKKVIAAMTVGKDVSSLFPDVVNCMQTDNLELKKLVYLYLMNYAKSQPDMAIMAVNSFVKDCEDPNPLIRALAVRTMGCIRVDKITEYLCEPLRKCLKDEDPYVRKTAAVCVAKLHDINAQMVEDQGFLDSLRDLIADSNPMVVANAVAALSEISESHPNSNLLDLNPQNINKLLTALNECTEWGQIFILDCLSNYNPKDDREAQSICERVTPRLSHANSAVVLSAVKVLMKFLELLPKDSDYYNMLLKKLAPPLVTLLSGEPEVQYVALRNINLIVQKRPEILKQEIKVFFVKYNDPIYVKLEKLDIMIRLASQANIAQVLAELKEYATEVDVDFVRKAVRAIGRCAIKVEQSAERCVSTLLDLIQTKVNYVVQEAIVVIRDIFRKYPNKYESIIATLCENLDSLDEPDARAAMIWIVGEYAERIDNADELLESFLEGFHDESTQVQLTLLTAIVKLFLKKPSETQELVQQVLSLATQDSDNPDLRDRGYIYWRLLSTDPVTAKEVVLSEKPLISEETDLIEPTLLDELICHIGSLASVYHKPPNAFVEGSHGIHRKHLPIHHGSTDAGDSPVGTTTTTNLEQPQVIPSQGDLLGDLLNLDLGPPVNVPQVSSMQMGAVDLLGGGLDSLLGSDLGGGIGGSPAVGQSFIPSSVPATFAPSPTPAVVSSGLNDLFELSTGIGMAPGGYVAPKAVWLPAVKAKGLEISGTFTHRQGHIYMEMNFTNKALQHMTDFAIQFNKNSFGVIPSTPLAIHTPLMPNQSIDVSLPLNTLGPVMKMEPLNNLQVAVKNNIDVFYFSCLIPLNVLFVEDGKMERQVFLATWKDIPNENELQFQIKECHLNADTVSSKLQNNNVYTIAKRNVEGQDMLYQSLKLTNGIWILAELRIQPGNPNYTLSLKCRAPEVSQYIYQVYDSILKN

| Variant | effect of a mutation on the interaction |
| --- | --- |
| S645E | disrupting interaction |

Variants of: B1
Settings: with Ap2b1, Q9DBG3-1
Ap2b1, Q9DBG3-1, sequence (Q9DBG3 whole entry): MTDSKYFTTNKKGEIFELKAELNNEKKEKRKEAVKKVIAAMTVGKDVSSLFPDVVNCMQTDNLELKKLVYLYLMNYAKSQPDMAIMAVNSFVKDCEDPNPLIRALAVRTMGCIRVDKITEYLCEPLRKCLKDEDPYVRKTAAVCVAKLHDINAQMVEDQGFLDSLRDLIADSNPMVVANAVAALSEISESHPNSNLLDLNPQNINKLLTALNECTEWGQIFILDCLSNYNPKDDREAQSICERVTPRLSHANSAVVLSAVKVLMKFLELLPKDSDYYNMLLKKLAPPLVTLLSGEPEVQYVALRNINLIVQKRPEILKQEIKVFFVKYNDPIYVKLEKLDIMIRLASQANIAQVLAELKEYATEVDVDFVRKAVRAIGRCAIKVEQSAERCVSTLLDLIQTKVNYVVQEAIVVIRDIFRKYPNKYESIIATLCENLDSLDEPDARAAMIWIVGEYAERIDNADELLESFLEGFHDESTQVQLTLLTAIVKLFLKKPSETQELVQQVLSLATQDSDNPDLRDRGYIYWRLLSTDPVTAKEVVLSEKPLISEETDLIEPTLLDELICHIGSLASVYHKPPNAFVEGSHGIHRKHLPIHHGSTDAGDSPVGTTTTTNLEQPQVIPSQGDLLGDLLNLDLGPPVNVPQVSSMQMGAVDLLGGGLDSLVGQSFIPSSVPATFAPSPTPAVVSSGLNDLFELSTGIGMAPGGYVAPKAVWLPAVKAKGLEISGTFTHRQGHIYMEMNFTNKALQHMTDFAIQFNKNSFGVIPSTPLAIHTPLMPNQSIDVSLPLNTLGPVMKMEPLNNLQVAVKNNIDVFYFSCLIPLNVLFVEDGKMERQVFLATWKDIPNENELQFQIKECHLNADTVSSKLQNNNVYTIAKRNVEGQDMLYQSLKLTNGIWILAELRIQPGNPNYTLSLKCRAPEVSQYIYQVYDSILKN

| Variant | effect of a mutation on the interaction |
| --- | --- |
| S645E | disrupting interaction |

Variants of: B1
Settings: with Ap2b1, Q9DBG3-1
Remark: another data set of the same source

| Variant | effect of a mutation on the interaction |
| --- | --- |
| D277A | disrupting interaction |
